Values of other authors in patent US12377186B2, “Antimicrobial biopolymer compositions, methods of synthesis, and applications of use” (ARIZONA BOARD OF REGENTS ON BEHALF OF THE UNIVERSITY OF …, priority 2018, dated 2025).

Conditions: cited from earlier work

In the case of “[(VPGAG)2 (VPGYG)1 (VPGAG)2]36 [ELP (A2Y1A2)36]”, the “Tt, experimental of ELP (Tyr)” value (180 ELP pentapeptide repeats, according to previous research by Ingrole et al.) is listed as 25 °C and the “change in Tt when fused to a hydrophilic peptide” value (relative to the smaller ELP(A2Y1A2)24) is listed as “less change in Tt”.
